This is an account of results in publication PMC9270254.

The target of one experiment is human IgG (human). The experiment can be described thus: SPR. Background: In SPR one partner is held on a chip, and binding of the other changes the refractive index at the surface.
The next experiment has as its target human IgM (human). The experiment is described as follows: SPR.

In the experiment with human IgG (human), “single-chain mouse globular part of C1q (from UniProt P98086 110-245; Q02105 116-246; P14106 115-253) (domain or fragment)” registered a Kd1 (first phase, two-exponential fit) of 6.8 nM; a kd1 (first phase, two-exponential fit) of 0.032 s⁻¹; a kd2 (second phase, two-exponential fit) of 0.0021 s⁻¹. Further, in the experiment with human IgM (human), the Kd1 (first phase, two-exponential fit) is 8.5 nM; the kd1 (first phase, two-exponential fit) was determined as 0.029 s⁻¹; the kd2 (second phase, two-exponential fit) was 0.0023 s⁻¹.
